Measurements from patent publication US20030211995A1, “Methods and formulations for eradicating or alleviating staphylococcal nasal colonization using lysostaphin” (priority 2001, published 2003).

System: S. aureus
Experiment: Proteinase K neutralization of lysostaphin activity in vitro
Assay type: cell-based
Conditions: 10^5 S. aureus in PBS; lysostaphin 10 mcg and/or 10 mg/ml Proteinase K; 20 minutes at room temperature
Description: Lysostaphin (10 mcg) was added to some samples of 10^5 S. aureus in PBS in the presence or absence of 10 mg/ml Proteinase K. The samples were incubated for 20 minutes at room temperatures and then 100 microliter aliquots were plated on blood agar.

B1: Proteinase K: protease used at 10 mg/ml to neutralize lysostaphin (protein, UniProt P06873 106-384, looked up)
Proteinase K: AAQTNAPWGLARISSTSPGTSTYYYDESAGQGSCVYVIDTGIEASHPEFEGRAQMVKTYYYSSRDGNGHGTHCAGTVGSRTYGVAKKTQLFGVKVLDDNGSGQYSTIIAGMDFVASDKNNRNCPKGVVASLSLGGGYSSSVNSAAARLQSSGVMVAVAAGNNNADARNYSPASEPSVCTVGASDRYDRRSSFSNYGSVLDIFGPGTSILSTWIGGSTRSISGTSMATPHVAGLAAYLMTLGKTTAASACRYIADTANKGDLSNIPFGTVNLLAYNNYQA
CFUs Recovered: 10^5 CFUs
